Like-named read-outs stand apart in the source and are kept apart here.

Experiment [1] deals with HIV-1 capsid protein CA N21C/A22C (HIV-1 NL4-3). Nature of the experiment: cross-linking; engineered disulfide cross-links read by non-reducing SDS-PAGE; after assembly: purified protein at 1 mg/mL (also about 4 and 10 mg/mL) dialyzed into 50 mM Tris-HCl, pH 8.0, 1 M NaCl overnight at 4 °C, no reductant.
For experiment [2] the target is unchanged. The description is as above. This is another data set of the same source.

As usually defined, the stoichiometry N is a count of units in the complex or per binding partner. Take “HIV-1 capsid protein CA N21C/A22C (natural protein)”: the results for the stoichiometry N in experiment [1] and in experiment [2] were 6 and 5, respectively.

These data come from PMC6316451.
